Measurements published in article PMC7190642.

Assays:
[1] = target: GST-MDM2-419–C/His-MDMX-418–C heterodimer (UniProt Q00987); assay: SPR; GST-tagged MDM2 variants captured on a CM-5 chip with coupled anti-GST antibody; serial dilution of UbcH5B–Ub as analyte; 25 °C; 25 mM Tris-HCl pH 7.6, 150 mM NaCl, 0.1 mg/ml BSA, 1 mM DTT, 0.005% Tween-20; Biacore T200; GST alone subtracted
[2] = target: GST-MDM2-350–C-S429D (human) (UniProt Q00987); assay: as above
[3] = target: GST-MDM2-350–C-S407D (human) (UniProt Q00987); assay: as above
[4] = target: GST-MDM2-419–C-S429E/His-MDMX-418–C heterodimer (UniProt Q00987); assay: as above
[5] = target: GST-MDM2-350–C-6D/His-MDMX-428–C heterodimer (UniProt Q00987); assay: as above
[6] = target: GST-MDM2-350–C/His-MDMX-428–C heterodimer (UniProt Q00987); assay: as above
GST-MDM2-419–C (human) = GST-MDM2-419–C (human) (UniProt Q00987); assay: as above
[7] = target: GST-MDM2-419–C-S429E (human) (UniProt Q00987); assay: as above
[8] = target: GST-MDM2-419–C-pS429 (human) (UniProt Q00987); assay: as above
[9] = target: GST-MDM2-350–C-6D (human) (UniProt Q00987); assay: as above
[10] = target: GST-MDM2-419–C-S429D (human) (UniProt Q00987); assay: as above
[11] = target: GST-MDM2-350–C-S395D (human) (UniProt Q00987); assay: as above
[12] = target: GST-MDM2-350–C-T419D (human) (UniProt Q00987); assay: as above
[13] = target: GST-cat MDM2-422–C-S429E (Felis catus (cat)) (UniProt Q7YRZ8); assay: as above
[14] = target: GST-cat MDM2-422–C (Felis catus (cat)) (UniProt Q7YRZ8); assay: as above
[15] = target: GST-MDM2-350–C-S425D (human) (UniProt Q00987); assay: as above
[16] = target: GST-MDM2-350–C-S386D (human) (UniProt Q00987); assay: as above
[17] = target: GST-MDM2-419–C-S429E (human) (UniProt Q00987)

UbcH5B S22R, C85K–Ub (stably conjugated E2–ubiquitin) (from UniProt P62837 1-147; P0CG47 1-76) (complex)
Kd [1]: 23.4 µM | Kd [2]: 7.8 µM | Kd [3]: 13.7 µM | Kd [4]: 17.8 µM | Kd [5]: 29.2 µM | Kd [6]: 36.7 µM | Kd (GST-MDM2-419–C (human)): 14 µM | Kd [7]: 6.4 µM | Kd [8]: 5.1 µM | Kd [9]: 6.7 µM | Kd [10]: 7.1 µM | Kd [11]: 13.7 µM | Kd [12]: 13 µM | Kd [13]: 6.8 µM | Kd [14]: 16.8 µM | Kd [15]: 13.4 µM | Kd [16]: 13.7 µM | rate of autoubiquitination of the MDM2 homodimer over time, S429E against WT [17]: 1.6 fold
